US11932673
Substitutions are numbered along the chain they refer to.

B1: E08 (KnotBody with EET 5-3 framing) (scFv, V domains shown)
VH: EVQLVESGGGLVRPGGSLRLSCAASGFTFSSYAMSWVRQAPGKGLEWVSAISGSGGSTYYADSVKGRFTISRDNTKNSLYLQMTSLRADDTAFYYCVKDFGPGYGTGWFDYWGPGTLVTVSS
VL: AVNWYQQLPGKAPKLLIYAAGGCGPNGFCGSGSDGGVCPRILMRCKQDSDCLAGCGIQSGIPERFSGSKSGTSASLAISGLRSEDEADYYCAAWDDNLSGYVFGTGTKLTVLG
B2: F01 (KnotBody with EET 5-3 framing) (scFv, V domains shown)
VH: B1 VH
VL: YLNWYQQKPGKAPKLLIDAAGECGPNGFCGSGSDGGVCPRINMRCKQDSDCLAGCGRDSGVPSRFSGSGSGTDFTLTISSLQPEDFATYYCQQSYSTPWTFGQGTKVEIKR
B3: C09 (KnotBody with EET 5-3 framing) (scFv, V domains shown)
VH: B1 VH
VL: SEAPRQRVTITCGGKRCGPNGFCGSGSDGGVCPRILMRCKQDSDCLAGCTSNWYQQKPGQAPVLVVQDDSVRPSGIPERFSGSNSGNTATLTISRVEAGDGADYYCQVWDISSDLGVFGGGTKLTVLG
B4: E01 (KnotBody with EET 5-3 framing) (scFv, V domains shown)
VH: B1 VH
VL: B1 VL with Q58H, I61V, P62S, E63D, G67D, R82Q, N97S, S99N
B5: E03 (KnotBody with EET 5-3 framing) (scFv, V domains shown)
VH: B1 VH
VL: AVNWYQQLPGKAPKLLIYAAGGCGPNGFCGSGSDGGVCPRILMRCKQDSDCLAGCGRNSGIPERFSGSKSGHTATLTISRVEAGDEADYYCQVWDSSSDHVLFGGGTKLTVLG
B6: E05 (KnotBody with EET 5-3 framing) (scFv, V domains shown)
VH: B1 VH
VL: B1 VL with I57A, R82Q, D88H, N97S, S99N, L109V
B7: KB_A12_B-gal_H03 (scFv, V domains shown)
VH: B1 VH
VL: AVNWYQQLPGKAPKLLIYAAGRCNQTMSIRRPCKQDSDCLAGCVCGPNGFCGANSGVSDRFSAAKSGTSASLAINGLRSEDEADYYCAAWDDSLNGYVFGTGTKLTVLG
B8: KB_A12_B-gal_H07 (scFv, V domains shown)
VH: B1 VH
VL: B7 VL with N24T, M27A, S28L, P32R
B9: KB_A12_B-gal_E05 (scFv, V domains shown)
VH: B1 VH
VL: B7 VL with N24R, Q25E, M27S, I29L
B10: KB_A12_B-gal_F09 (scFv, V domains shown)
VH: B1 VH
VL: B7 VL with N24I, Q25A, M27S, S28H, P32H
B11: KB_A12_B-gal_F03 (scFv, V domains shown)
VH: B1 VH
VL: B7 VL with N24L, Q25A, M27T, P32H
B12: KB_A12_B-gal_F07 (scFv, V domains shown)
VH: B1 VH
VL: B7 VL with N24R, Q25T, M27A, S28N, I29V, P32H
B13: KB_A12_B-gal_E04 (scFv, V domains shown)
VH: B1 VH
VL: B7 VL with N24L, Q25A, M27T
B14: KB_A12_B-gal_F11 (scFv, V domains shown)
VH: B1 VH
VL: B7 VL with N24H, Q25E, M27A, S28Q, P32R
B15: KB_A12_B-gal_H02 (scFv, V domains shown)
VH: B1 VH
VL: B7 VL with N24E, M27S, S28V, P32H

molecular target: trypsin; test: monoclonal phage ELISA

ELISA signal	Binder
121000	B1
102000	B2
9820	B3
128000	B4
82500	B5
119000	B6

molecular target: β-galactosidase; test: monoclonal phage TRF
Sequence (P00722 2-1024): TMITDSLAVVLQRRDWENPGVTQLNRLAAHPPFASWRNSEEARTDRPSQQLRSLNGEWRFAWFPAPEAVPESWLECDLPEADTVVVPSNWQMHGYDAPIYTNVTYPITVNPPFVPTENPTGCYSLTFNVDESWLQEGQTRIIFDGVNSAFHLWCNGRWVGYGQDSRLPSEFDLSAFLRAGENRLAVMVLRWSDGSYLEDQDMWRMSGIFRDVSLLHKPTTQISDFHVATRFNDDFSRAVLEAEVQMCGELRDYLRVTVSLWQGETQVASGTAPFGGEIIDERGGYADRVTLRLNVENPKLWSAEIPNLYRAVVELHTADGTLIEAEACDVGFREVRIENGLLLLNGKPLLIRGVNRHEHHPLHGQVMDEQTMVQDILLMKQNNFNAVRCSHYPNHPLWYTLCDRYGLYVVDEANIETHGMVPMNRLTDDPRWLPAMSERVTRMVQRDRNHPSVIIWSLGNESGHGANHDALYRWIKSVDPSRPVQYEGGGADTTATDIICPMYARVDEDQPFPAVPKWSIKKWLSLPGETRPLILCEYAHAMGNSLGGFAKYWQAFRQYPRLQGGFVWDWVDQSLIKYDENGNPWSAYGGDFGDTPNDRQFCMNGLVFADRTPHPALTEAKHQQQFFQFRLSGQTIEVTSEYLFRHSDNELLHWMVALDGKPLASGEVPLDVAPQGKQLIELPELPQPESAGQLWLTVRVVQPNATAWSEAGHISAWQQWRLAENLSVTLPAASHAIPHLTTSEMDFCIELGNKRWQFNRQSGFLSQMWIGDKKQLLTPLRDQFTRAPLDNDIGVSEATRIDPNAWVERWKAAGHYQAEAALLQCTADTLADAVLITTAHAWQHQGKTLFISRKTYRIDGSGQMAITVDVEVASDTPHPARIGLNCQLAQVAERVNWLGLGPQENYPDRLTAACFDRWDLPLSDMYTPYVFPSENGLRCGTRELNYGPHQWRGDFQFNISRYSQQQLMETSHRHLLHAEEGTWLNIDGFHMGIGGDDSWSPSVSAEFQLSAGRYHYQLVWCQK

TRF signal	Binder
518000	B7
62000	B8
312000	B9
258000	B10
289000	B11
246000	B12
523000	B13
531000	B14
501000	B15
